According to patent US20220177594A1 (ZOETIS SERVICES, published 2022):

Target: T1, Human_OSMR (human, UniProt Q99650 28-739)
T1 construct: Bought protein; also called hOSMR
T1 sequence: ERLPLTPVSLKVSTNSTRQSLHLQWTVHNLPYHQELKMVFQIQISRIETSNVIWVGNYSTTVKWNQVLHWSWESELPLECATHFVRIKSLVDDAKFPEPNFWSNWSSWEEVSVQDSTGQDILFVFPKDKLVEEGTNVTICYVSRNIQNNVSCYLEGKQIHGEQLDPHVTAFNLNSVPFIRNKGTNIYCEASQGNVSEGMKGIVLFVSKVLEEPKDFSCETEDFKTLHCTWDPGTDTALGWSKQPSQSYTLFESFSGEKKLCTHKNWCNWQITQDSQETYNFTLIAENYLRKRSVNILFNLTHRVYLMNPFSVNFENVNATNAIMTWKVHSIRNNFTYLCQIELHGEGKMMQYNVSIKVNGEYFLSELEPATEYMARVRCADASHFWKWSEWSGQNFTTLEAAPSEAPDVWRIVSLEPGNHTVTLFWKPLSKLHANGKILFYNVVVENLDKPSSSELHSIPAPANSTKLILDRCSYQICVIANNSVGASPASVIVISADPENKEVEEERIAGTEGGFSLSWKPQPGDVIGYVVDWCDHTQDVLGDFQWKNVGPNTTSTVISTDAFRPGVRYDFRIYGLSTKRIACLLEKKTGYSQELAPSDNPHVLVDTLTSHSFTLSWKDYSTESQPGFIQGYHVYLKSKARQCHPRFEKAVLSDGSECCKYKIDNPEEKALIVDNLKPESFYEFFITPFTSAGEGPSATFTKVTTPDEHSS
Assay: SPR Biacore
Procedure: The affinity with which candidate mAbs bind canine, feline, and human (SEQ ID NO: 122; Human_OSMR) (R&D Systems, Minneapolis, Minn.) OSMR was determined using surface plasmon resonance (SPR) on a Biacore system (Biacore Life Sciences (GE Healthcare), Uppsala, Sweden). To avoid affinity differences associated with differential surface preparation that can occur when immobilizing antibodies to surfaces; OSMR from each species was directly conjugated to individual surfaces. Immobilization was obtained by amine coupling 5 μg/mL OSMR using N-hydroxysuccinimide (NHS)/1-Ethyl-3-(3-dimethylaminopropyl) carbodiimide (EDC) chemistry. Chips were quenched with ethanolamine and the affinity with which all candidate mAbs bound to the immobilized OSMR was evaluated. All curves were fit to a 1:1 model. […] Results for affinity measurements are described herein.
Caninized (canine) and felinized (feline) anti-OSMR antibodies were cloned, expressed, and purified. The sequence of each speciated antibody in Table 6 is described in Example 8. Affinity of these speciated antibodies to canine and feline OSMR was measured using Biacore. Table 5 describes results of these Biacore experiments for speciated antibodies that expressed and bound canine and/or feline OSMR. As indicated in the table, this first round of speciation produced antibodies from the 19F07, 09E09, and 10F07 lineage that expressed and bound to their protein target. For comparison to the mouse and mouse:canine chimeras having the same CDRs as these speciated versions, see Tables 1 and 3 respectively. […] Detailed here are the binding kinetics for antibodies that exemplify this goal.

B1: Canine_OSM (ligand)
chain: SCSDKYPELLGQLQKQADFMQHTNTLLDLYIRSQGLDKNGLKEHCRERPGAFPSKDALQRLSRRVFLRTLDTTLGQVLLRLAALEQDIPKAQDLEMLSGVKLNIRGFKNNIHCMAQLLPGSSETTEPTPTSPGASPSPTPTLDTFQRRLEGCRFLHGYHRFMRSVGQVFREWGKSLSRSRR
notes: also called cOSM
Kd: 38.1 nM | koff: 0.0039 s⁻¹ | kon: 102000 M⁻¹ s⁻¹
